First the molecules themselves.
B1: aaPlsY (Aquifex aeolicus VF5; N37A) (protein)
chain: MKALFLVIFAYLLGSITFGEVIAKLKGVDLRNVGSGAVGATNVTRALGKKYGVLVFFLDFLKGFIPALIAVKSFGIDSWVLTFTGLASVLGHMYPVFFGFKGGKGVATALGVVFAVSPSVALFSFLVWLGIFLWKRYVSLASITATISAFLFLFVAGYPVNVLFMAIVIGALIIYRHRENINRLLTGREHRF
notes: full length, 192 residues, monomer, codon-optimised gene, E. coli BL21(DE3); assays: C-terminal His8 tag (p3EC); crystals: C-terminal His-eGFP removed by 3C protease; DDM-purified, reconstituted in lipid cubic phase
B2: aaPlsY (Aquifex aeolicus VF5; S35A) (protein)
chain: MKALFLVIFAYLLGSITFGEVIAKLKGVDLRNVGAGNVGATNVTRALGKKYGVLVFFLDFLKGFIPALIAVKSFGIDSWVLTFTGLASVLGHMYPVFFGFKGGKGVATALGVVFAVSPSVALFSFLVWLGIFLWKRYVSLASITATISAFLFLFVAGYPVNVLFMAIVIGALIIYRHRENINRLLTGREHRF
notes: as for B1
B3: aaPlsY (Aquifex aeolicus VF5; S142A) (protein)
chain: MKALFLVIFAYLLGSITFGEVIAKLKGVDLRNVGSGNVGATNVTRALGKKYGVLVFFLDFLKGFIPALIAVKSFGIDSWVLTFTGLASVLGHMYPVFFGFKGGKGVATALGVVFAVSPSVALFSFLVWLGIFLWKRYVSLAAITATISAFLFLFVAGYPVNVLFMAIVIGALIIYRHRENINRLLTGREHRF
notes: as for B1
B4: aaPlsY (Aquifex aeolicus VF5; H177A) (protein)
chain: MKALFLVIFAYLLGSITFGEVIAKLKGVDLRNVGSGNVGATNVTRALGKKYGVLVFFLDFLKGFIPALIAVKSFGIDSWVLTFTGLASVLGHMYPVFFGFKGGKGVATALGVVFAVSPSVALFSFLVWLGIFLWKRYVSLASITATISAFLFLFVAGYPVNVLFMAIVIGALIIYRARENINRLLTGREHRF
notes: as for B1
B5: aaPlsY (Aquifex aeolicus VF5; E189A) (protein)
chain: MKALFLVIFAYLLGSITFGEVIAKLKGVDLRNVGSGNVGATNVTRALGKKYGVLVFFLDFLKGFIPALIAVKSFGIDSWVLTFTGLASVLGHMYPVFFGFKGGKGVATALGVVFAVSPSVALFSFLVWLGIFLWKRYVSLASITATISAFLFLFVAGYPVNVLFMAIVIGALIIYRHRENINRLLTGRAHRF
notes: as for B1
B6: aaPlsY (Aquifex aeolicus VF5; T41A) (protein)
chain: MKALFLVIFAYLLGSITFGEVIAKLKGVDLRNVGSGNVGAANVTRALGKKYGVLVFFLDFLKGFIPALIAVKSFGIDSWVLTFTGLASVLGHMYPVFFGFKGGKGVATALGVVFAVSPSVALFSFLVWLGIFLWKRYVSLASITATISAFLFLFVAGYPVNVLFMAIVIGALIIYRHRENINRLLTGREHRF
notes: as for B1
B7: aaPlsY (Aquifex aeolicus VF5; R45A) (protein)
chain: MKALFLVIFAYLLGSITFGEVIAKLKGVDLRNVGSGNVGATNVTAALGKKYGVLVFFLDFLKGFIPALIAVKSFGIDSWVLTFTGLASVLGHMYPVFFGFKGGKGVATALGVVFAVSPSVALFSFLVWLGIFLWKRYVSLASITATISAFLFLFVAGYPVNVLFMAIVIGALIIYRHRENINRLLTGREHRF
notes: as for B1
B8: aaPlsY (Aquifex aeolicus VF5; N180A) (protein)
chain: MKALFLVIFAYLLGSITFGEVIAKLKGVDLRNVGSGNVGATNVTRALGKKYGVLVFFLDFLKGFIPALIAVKSFGIDSWVLTFTGLASVLGHMYPVFFGFKGGKGVATALGVVFAVSPSVALFSFLVWLGIFLWKRYVSLASITATISAFLFLFVAGYPVNVLFMAIVIGALIIYRHREAINRLLTGREHRF
notes: as for B1
B9: aaPlsY (Aquifex aeolicus VF5; K104A) (protein)
chain: MKALFLVIFAYLLGSITFGEVIAKLKGVDLRNVGSGNVGATNVTRALGKKYGVLVFFLDFLKGFIPALIAVKSFGIDSWVLTFTGLASVLGHMYPVFFGFKGGAGVATALGVVFAVSPSVALFSFLVWLGIFLWKRYVSLASITATISAFLFLFVAGYPVNVLFMAIVIGALIIYRHRENINRLLTGREHRF
notes: as for B1
B10: aaPlsY (Aquifex aeolicus VF5; H92A) (protein)
chain: MKALFLVIFAYLLGSITFGEVIAKLKGVDLRNVGSGNVGATNVTRALGKKYGVLVFFLDFLKGFIPALIAVKSFGIDSWVLTFTGLASVLGAMYPVFFGFKGGKGVATALGVVFAVSPSVALFSFLVWLGIFLWKRYVSLASITATISAFLFLFVAGYPVNVLFMAIVIGALIIYRHRENINRLLTGREHRF
notes: as for B1
B11: aaPlsY (Aquifex aeolicus VF5) (protein)
chain: MKALFLVIFAYLLGSITFGEVIAKLKGVDLRNVGSGNVGATNVTRALGKKYGVLVFFLDFLKGFIPALIAVKSFGIDSWVLTFTGLASVLGHMYPVFFGFKGGKGVATALGVVFAVSPSVALFSFLVWLGIFLWKRYVSLASITATISAFLFLFVAGYPVNVLFMAIVIGALIIYRHRENINRLLTGREHRF
notes: as for B1

The results in this text go back to article PMC5700162, “Structural insights into the committed step of bacterial phospholipid biosynthesis” (Nature Communications, 2017).

What is called Km is the concentration of substrate that gives half-maximal velocity. What is called kcat is the maximal rate divided by the concentration of active sites.

The first data set has as its target T1, aaPlsY (Aquifex aeolicus, UniProt O66905). In words: coupled MDCC-PBP Pi-biosensor fluorescence assay in lipid cubic phase (monoolein). Also on record: gene plsY; full length, 192 residues, monomer, codon-optimised gene, E. coli BL21(DE3); assays: C-terminal His8 tag (p3EC); crystals: C-terminal His-eGFP removed by 3C protease; DDM-purified, reconstituted in lipid cubic phase. The following applies: co-substrate 30 mM glycerol phosphate; pH 8.0, 30 °C; 0-2 mol% 16:0-P in the lipid phase. Type of data set: biochemical.
In the case of `CCCCCCCCCCCCCCCC(=O)OP(=O)(O)O` [16:0-P, palmitoyl phosphate], the “apparent Km” value is recorded as 0.1 mol% (relative to monoolein).

Substrate in another data set: O=P(O)(O)OC[C@H](O)CO
The data set is described as above. Type of data set: biochemical, Aquifex aeolicus. Conditions: co-substrate 3.3-5.2 mol% 16:0-P, pH 8.0, 30 °C, no technical replicates. The text has this: coupled MDCC-PBP Pi-biosensor fluorescence assay in lipid cubic phase (monoolein) on […]
Regarding B1, the Km worked out at 3.04 mM and the kcat came out at 2.49 s⁻¹.
Consider B2, for which the Km worked out at 13.75 mM and the catalytic constant (kcat) is 0.64 s⁻¹.
B3: the Km was found to be 2.89 mM and the turnover number (kcat) is 4.29 s⁻¹.
Take B4: the Km amounted to 9.24 mM and the kcat was 0.88 s⁻¹.
With B5, the Km is 5.79 mM and the kcat was determined as 18.5 s⁻¹.
With B6, the Km is reported as 0.43 mM and the kcat is 0.64 s⁻¹.
Take B7: the Km was 50.46 mM and the kcat worked out at 0.15 s⁻¹.
For B8, the Km stood at 26.31 mM and the kcat was 0.62 s⁻¹.
For B9, the Km worked out at 6.58 mM and the kcat is 1 s⁻¹.
As to B10, the Michaelis constant (Km) turned out to be 2.64 mM and the kcat worked out at 2.37 s⁻¹.

The target in a further data set is T1, aaPlsY.
Assay: not given
Also on record: gene plsY. Conditions: 7.8 MAG LCP with 0.4 M Na2HPO4, pH 7.0; three phosphates from phosphate hole to phosphate clamp.
On to `O=P(O)(O)O` [Pi, inorganic phosphate], for which the “X-ray crystal structure, 1.83 Å” value was “three phosphates are trapped in a positive patch stretching from the phosphate hole”.

Substrate in a further data set: O=P(O)(O)OC[C@H](O)CO
In words: coupled MDCC-PBP Pi-biosensor fluorescence assay in lipid cubic phase (monoolein). Type of data set: biochemical, Aquifex aeolicus. The following applies: co-substrate 1.8 mol% 16:0-P, pH 8.0, 30 °C, 0-50 mM G3P.
Turning to B11, the Km amounted to 1.39 mM and the kcat is 13.4 s⁻¹.
